System: MS2 coat protein
Test: apparent KD of MS2 coat protein; designed switch direction (-1 OFF switch, 1 ON switch): 1; higher = weaker reporter binding
Outline: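 On Illumina chips, designed RNA switches with common flanks were made by stalled E. coli RNA polymerase. Titrations with SNAP-549-labelled MS2 coat protein, doubling from 0.7 or 1.5 nM to 3 µM, were done with no input, with 200 uM small-molecule ligand, or with an oligonucleotide input. Apparent KD is the median per design over clusters, from curve fits of normalised cluster fluorescence.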

[1] = input ligand: microRNA oligo, concentration not stated
[2] = Eterna round: R95, input ligand: FMN 200 uM
[3] = Eterna round: R95, input ligand: microRNA oligo, concentration not stated
[4] = Eterna round: R95, input ligand: none

| Sequence | apparent KD of MS2 coat protein (input ligand: FMN 200 uM) | apparent KD of MS2 coat protein [1] | apparent KD of MS2 coat protein (input ligand: none) | apparent KD of MS2 coat protein [2] | apparent KD of MS2 coat protein [3] | apparent KD of MS2 coat protein [4] |
| --- | --- | --- | --- | --- | --- | --- |
| GAAUAGUUGAGAGGAUAUCUAUUAUUGUAGGAUAGAGAAGGUUUUAACAUGAGGAUCACCCAUGUAGGACUAUAUAUGUGAAUA [Parity 99 - Jieux - Same State NG 1] (Eterna round: R96, puzzle: Same State NG 1) | 14.2 nM | 12.5 nM | 15.3 nM |  |  |  |
| GACAAGCAGGCUUUUUUCUCGUAGUGUAAACAUGAGGAUCACCCAUGUGCCCGCCCUGGAUCUUUGGAUCGCAGGAA [Onlari] (puzzle: Sensor for hsa-mir-208a) |  |  |  | 36.4 nM | 14.5 nM | 35.5 nM |
| GACAAUCUAUCUGAGGAUAUCAUGAAUAAAACAUGAGGAUCACCCAUGUGCAGGAUAACUGCAAAUGAGAAGGCAGAUAGAUUGG [Mat - Same State 2 - Mod - D9] (puzzle: Same State 2) |  |  |  | 9.21 nM | 20 nM | 18 nM |
| GACAAUCUAUCUGAGGAUAUCAUGAGAAGAACAUGAGGAUCACCCAUGUGCAGGAAAACUGCAUAUGAGAAGGCAGAUAGAUUGG [Mat - Same State 2 - Mod - D17] (puzzle: Same State 2) |  |  |  | 47.8 nM | 607 nM | 3570 nM |
| GACCGCGAGGAAGGAUAUGGAGCCUUAAAGGCUCCAGAAGGUCCAUAAAGGACAUGAGGAUCACCCAUGUGGUGAGAAGCGGUC [Mat - Same State NG 1 - JL mod - D75] (Eterna round: R96, puzzle: Same State NG 1) |  | 711 nM |  |  |  |  |
| GACCGCGAGGAAGGAUAUGGAGCCUUAUUGGCUCCAGAAGGUCCAUAAGGGACAUGAGGAUCACCCAUGUGGGUUGAAGCGGUC [Fiskers NG1ss - 35] (Eterna round: R96, puzzle: Same State NG 1) | 24.6 nM | 140 nM | 160 nM |  |  |  |
| GAGAGACAUGAGGAUCACCCAUGUAGAAUAGAACAAGGAUAUGUGGAAGGCGGAGGAGAGACAGAAGGUGUAGGAG [JR_SS1_Sub055] (puzzle: Same State 1) |  |  |  |  | 64 nM |  |
| GAGAGAGGGUGAGGAUAUUCGGUGAUAAUGAUGGGAGAAGGCACAGACAUGAGGAUCACCCAUGUGGGAAUAAUCCAGAGAGAG [Parity 12 - Jieux - Same State NG 1] (Eterna round: R96, puzzle: Same State NG 1) | 138 nM | 83 nM | 181 nM |  |  |  |
| GAGGAACAUGAGGAUCACCCAUGUGGGAUGGGACAAGGAUAUGUAGGUAGAGGAGAAGAGACAGAAGGUGUAGGAG [JR_SS1_Sub052] (puzzle: Same State 1) |  |  |  | 349 nM | 232 nM | 660 nM |
| GAGGAUGAUUUACAGGAUAUAUAGCAGAUGACAUGAGGAUCACCCAUGUAAGAGAAAGGAGGGAGAUAGAAGGGUAUGGGAGGUG [JR_SS2_Sub038] (puzzle: Same State 2) |  |  |  | 29.3 nM | 35.4 nM | 43.5 nM |
| GAGGAUGAUUUACAGGAUAUAUAGGAGAUGACAUGAGGAUCACCCAUGUAGGAGAUAGGAGUGAGAUAGAAGGGUAAGUGAUGUG [JR_SS2_Sub43] (puzzle: Same State 2) |  |  |  | 58.9 nM | 122 nM | 114 nM |
| GAGGGAUGAGCGUAGGAUAUAGGAGAAGUGACAUGAGGAUCACCCAUGUGGUAUGAGGGAUGAUUCUAGAAGGACGCGGUAGAAG [JR_SS2_Sub063] (puzzle: Same State 2) |  |  |  | 149 nM | 399 nM | 373 nM |
| GAGGGCGAAAGCGACAUGAGGAUCACCCAUGUCCUCGGAGGGCAGGAUAUCCGGCAGUAGCCGAAGGAGAAGGGUCGAAAAGAA [AK SSNG3-V2-35.1] (Eterna round: R96, puzzle: Same State NG 3) | 53.4 nM | 35.7 nM | 53.6 nM |  |  |  |
| GAGUAGUCAAAAGGAUAUUGAUUAUUGUAGGAUCAAGAAGGUUUUAACAUGAGGAUCACCCAUGUAGGACUAUUCCUGUGUAUC [Parity 91 - Jieux - Same State NG 1] (Eterna round: R96, puzzle: Same State NG 1) |  | 10.8 nM |  |  |  |  |
| GAGUAGUUGAAAGGAUAUUGAUUAUUGUAGGAUCAAGAAGGUUUUAACAUGAGGAUCACCCAUGUAGGACUAUAUAUGUGAAUA [Parity 95 - Jieux - Same State NG 1] (Eterna round: R96, puzzle: Same State NG 1) | 12.2 nM | 12.3 nM | 16 nM |  |  |  |
| GAGUAGUUGAAAGGAUAUUGAUUGUUGUAGGAUCAAGAAGGUUCUAACAUGAGGAUCACCCAUGUAGGACUAUUCCUGUGUAUC [Parity 86 - Jieux - Same State NG 1] (Eterna round: R96, puzzle: Same State NG 1) | 8.27 nM | 8.09 nM | 11.9 nM |  |  |  |
| GAGUCAGAUCGAGGAUAUUUGUUAUGACGAUCCCACAUGAGGAUCACCCAUGUCCACGAUCCUCCAAAGAAGGUGAGGCUGGCG [Eternabot solution 32] (Eterna round: R96, puzzle: Same State NG 2) | 202 nM | 39.6 nM | 88.2 nM |  |  |  |
| GAGUGACAUGAGGAUCACCCAUGUAGAAUAGAACAAGGAUAUGUGGAAGGCGGAGGAGAGACAGAAGGUGUUGGAG [JR_SS1_Sub056] (puzzle: Same State 1) |  |  |  | 47.9 nM | 51.2 nM | 88 nM |
| GAGUGGAGGUAAGGAUAUAUAAUGAUAAUCACAGUAGAAGGUACUAACAUGAGGAUCACCCAUGUAGGACUAUACCAGAGAGGG [Parity 45 - Jieux - Same State NG 1] (Eterna round: R96, puzzle: Same State NG 1) |  | 11.9 nM |  |  |  |  |
| GAGUGGCAGUUAGGAUAUAUAGUGAUAAUCACAAUAGAAGGAACAGACAUGAGGAUCACCCAUGUAGGACUAAUCCAGAGAGAG [Parity 37 - Jieux - Same State NG 1] (Eterna round: R96, puzzle: Same State NG 1) | 19.2 nM | 16.4 nM | 23.4 nM |  |  |  |
| GAGUGGUGGAGAGGAUAUACAUUGUUAUUCACUGUAGAAGGUUCUAACAUGAGGAUCACCCAUGUAGGACUAUUCCUGAGAGUU [Parity 55 - Jieux - Same State NG 1] (Eterna round: R96, puzzle: Same State NG 1) | 13.1 nM | 10.9 nM | 14.2 nM |  |  |  |
| GAGUUACAUGAGGAUCACCCAUGUUGUUUUGGAUAAGGAUAUAUGGUAGGAAGAGGAAUGAUAGAAGGUAUUAGGG [JR_SS1_Sub063] (Eterna round: R96, puzzle: Same State 1) | 41.6 nM | 26.8 nM | 35.3 nM |  |  |  |
| GAGUUACAUGAGGAUCACCCAUGUUGUUUUGGAUAAGGAUAUAUGGUAGGAAGAGGAAUGAUAGAAGGUAUUAGGG [JR_SS1_Sub063] (puzzle: Same State 1) |  |  |  |  | 25.3 nM |  |
| GAUAGACAUGAGGAUCACCCAUGUGACAAAACCACAGGAUAUCACACAGGAGUAACUGCGUGAGAAGGGUGAGACU [Edatinti] (puzzle: Same State 1) |  |  |  | 109 nM | 13.4 nM | 32.4 nM |
